According to patent publication US20070099268A1, “Chimeric HCN channels” (priority 2005, published 2007):
Values belong to the molecule of their own block, whether it stands above or below them.

Experiments:
hMSCs loaded with HCN2 = settings: cited from earlier work
[1] = system: native pacemaker current in sinus node; settings: cited from earlier work
AdHCN2 infected culture = experiment: Modulation of spontaneous rate by drugs in an AdHCN2 infected culture; assay type: cell-based, rat; settings: superfusion with drug; control record of same culture 48, 54 and 96 beats/min respectively
[2] = system: expressed HCN2 current in a neonatal ventricular myocyte; experiment: Effect of threshold concentration of isoproterenol on expressed HCN2 current, two-step voltage protocol; assay type: cell-based, rat
Source text: The effect of isoproterenol is to shift the activation curve positive without increasing maximal current. This effect can be visualized by a two-step voltage protocol, with the first step to the midpoint of the activation curve and the second step to the maximum curve. FIG. 23 employs this two-step protocol to illustrate that this threshold concentration of isoproterenol shifts the activation curve of over-expressed HCN2 in a neonatal rat ventricle cell.

[3] = biological target: rat Cx40 on transfected HeLa cells (rat) (UniProt P28234)
[4] = biological target: rat Cx43 on transfected HeLa cells (rat) (UniProt P08050)
[5] = biological target: mouse Cx45 on transfected HeLa cells (mouse) (UniProt P28229)
HCN1 = HCN1 (Mus musculus, UniProt O88704); experiment: Coexpression of HCN1 with MiRP1 or minK in Xenopus oocytes, two-microelectrode voltage clamp; settings: maximal conductance
Chain of HCN1 (O88704 whole entry): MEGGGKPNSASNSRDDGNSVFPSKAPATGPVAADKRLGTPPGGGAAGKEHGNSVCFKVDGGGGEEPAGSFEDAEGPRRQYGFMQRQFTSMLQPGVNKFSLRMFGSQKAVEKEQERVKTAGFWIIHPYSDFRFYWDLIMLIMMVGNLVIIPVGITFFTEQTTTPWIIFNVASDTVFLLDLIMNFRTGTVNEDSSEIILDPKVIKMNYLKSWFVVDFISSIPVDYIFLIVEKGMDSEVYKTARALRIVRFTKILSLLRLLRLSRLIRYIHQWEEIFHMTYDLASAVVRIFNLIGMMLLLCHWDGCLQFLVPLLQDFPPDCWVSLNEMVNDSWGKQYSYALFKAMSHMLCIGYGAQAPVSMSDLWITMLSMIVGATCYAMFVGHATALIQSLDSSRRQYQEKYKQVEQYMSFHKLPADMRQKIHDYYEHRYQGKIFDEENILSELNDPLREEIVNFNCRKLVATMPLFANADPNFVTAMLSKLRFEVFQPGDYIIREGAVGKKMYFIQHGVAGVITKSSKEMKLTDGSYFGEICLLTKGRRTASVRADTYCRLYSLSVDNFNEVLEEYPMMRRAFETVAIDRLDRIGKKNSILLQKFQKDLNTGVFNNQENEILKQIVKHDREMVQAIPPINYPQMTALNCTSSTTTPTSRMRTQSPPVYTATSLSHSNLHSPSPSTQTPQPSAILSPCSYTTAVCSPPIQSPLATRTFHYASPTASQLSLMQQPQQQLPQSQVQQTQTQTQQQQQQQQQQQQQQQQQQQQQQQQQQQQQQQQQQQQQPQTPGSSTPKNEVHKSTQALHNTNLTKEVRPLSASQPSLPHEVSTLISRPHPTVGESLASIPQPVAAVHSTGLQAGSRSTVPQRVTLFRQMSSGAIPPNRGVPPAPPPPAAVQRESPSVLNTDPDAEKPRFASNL

HCN2 = biological target: T1, HCN2 (Mus musculus, UniProt O88703); experiment: Coexpression of HCN2 with MiRP1 or minK in Xenopus oocytes, two-microelectrode voltage clamp; settings: maximal conductance
T1 sequence (O88703 1-863): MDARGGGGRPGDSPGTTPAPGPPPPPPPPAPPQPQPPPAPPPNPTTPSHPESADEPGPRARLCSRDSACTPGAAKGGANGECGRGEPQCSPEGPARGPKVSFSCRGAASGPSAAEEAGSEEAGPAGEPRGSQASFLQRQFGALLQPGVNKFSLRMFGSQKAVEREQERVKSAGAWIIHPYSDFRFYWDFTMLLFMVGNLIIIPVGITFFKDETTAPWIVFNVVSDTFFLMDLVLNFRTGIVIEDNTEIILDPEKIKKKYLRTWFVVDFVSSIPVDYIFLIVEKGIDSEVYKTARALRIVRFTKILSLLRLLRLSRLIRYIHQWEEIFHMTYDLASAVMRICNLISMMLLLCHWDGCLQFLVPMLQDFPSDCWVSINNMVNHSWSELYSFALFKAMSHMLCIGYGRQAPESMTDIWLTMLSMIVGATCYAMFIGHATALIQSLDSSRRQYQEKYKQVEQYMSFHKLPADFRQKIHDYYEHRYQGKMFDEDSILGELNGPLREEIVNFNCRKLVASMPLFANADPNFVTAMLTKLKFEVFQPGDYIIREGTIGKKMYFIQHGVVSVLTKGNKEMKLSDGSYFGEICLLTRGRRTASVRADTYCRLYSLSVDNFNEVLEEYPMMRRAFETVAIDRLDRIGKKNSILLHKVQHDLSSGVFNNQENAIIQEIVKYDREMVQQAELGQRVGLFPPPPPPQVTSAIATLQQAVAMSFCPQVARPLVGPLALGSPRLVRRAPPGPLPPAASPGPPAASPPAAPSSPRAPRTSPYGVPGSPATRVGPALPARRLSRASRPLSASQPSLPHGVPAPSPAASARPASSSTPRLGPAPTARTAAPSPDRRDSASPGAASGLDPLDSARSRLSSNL

Molecule: CC(C)NCC(O)c1ccc(O)c(O)c1 (stereo not drawn) [isoproterenol]
effect on expressed current (hMSCs loaded with HCN2): shift in activation such that increased current flowed at more positive potentials | threshold concentration on native pacemaker current [1]: approximately 1 nM | spontaneous rate during drug exposure (AdHCN2 infected culture): 63 beats/min | positive shift of activation curve [2]: approximately 5 mV

junctional conductance in cell pairs (double voltage clamp) [3]: 4.6 nS | junctional conductance in cell pairs (double voltage clamp) [4]: 7.9 nS | junctional conductance in cell pairs (double voltage clamp) [5]: 11 nS
Molecule: human mesenchymal stem cells (cells without a defined receptor)

enhancement of HCN1 conductance on coexpression (HCN1): does not enhance | enhancement of HCN2 expression on coexpression (HCN2): does not enhance
Molecule: minK: rat minK, the minimal K channel protein
